These results are taken from publication PMC9123286 (The Journal of Cell Biology, 2022).

In test [1] the target is T1, Get3 D57E-TEV-GFP (S. cerevisiae, UniProt Q12154 1-354, D57E).
T1 construct: Get3, cytosolic ATPase of the GET pathway, S. cerevisiae; ATPase-impaired client trap variant D57E; Captured on anti-GFP beads and eluted by TEV cleavage; the oligomeric state in the lysate was not measured; also called Get3 DE; Get3 D57E (DE); source: yeast (BY4741 background), ectopically expressed, in lysate made without detergent; not shown: TEV site-GFP, C-terminal, kept
T1 sequence (looked up): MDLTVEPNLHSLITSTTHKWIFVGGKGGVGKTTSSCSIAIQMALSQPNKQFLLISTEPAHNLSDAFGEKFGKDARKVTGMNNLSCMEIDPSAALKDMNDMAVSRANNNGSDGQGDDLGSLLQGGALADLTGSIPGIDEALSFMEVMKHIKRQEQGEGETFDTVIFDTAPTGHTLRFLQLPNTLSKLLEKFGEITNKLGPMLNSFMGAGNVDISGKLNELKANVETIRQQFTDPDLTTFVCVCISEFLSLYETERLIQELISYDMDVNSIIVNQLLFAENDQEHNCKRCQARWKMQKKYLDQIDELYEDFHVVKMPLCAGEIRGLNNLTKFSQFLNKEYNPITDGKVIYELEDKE
As to the kind of experiment: co-IP; lysates from Δget3 cells ectopically expressing Get3 DE-TEV-GFP and HA-tagged Erg1 full length, ΔC, Δα1 or Δα2; anti-GFP MicroBeads, no detergent, TEV elution; immunoblot, signal normalised to Get3 in the eluate and to the input.

The target in test [2] is T1, Get3 D57E-TEV-GFP. As to the kind of experiment: co-IP; lysates from cells expressing HA–Erg1 (endogenous promoter) and Get3 DE–TEV–GFP or Get3 DE FIDD–TEV–GFP; anti-GFP MicroBeads, no detergent, TEV elution; immunoblot, signal normalised to Get3 in the eluate and to the input. As to conditions: partners not purified.

In the test with Get3 D57E-TEV-GFP [1], “N-terminally HA-tagged Erg1 lacking the second predicted helix of the C-terminal hairpin (Δα2) (from UniProt P32476 1-496) (enzyme)” returned a percent reduction of Get3 binding against full-length HA–Erg1 of 95%.

B1: N-terminally HA-tagged Erg1 (full length) (enzyme, S. cerevisiae, UniProt P32476 1-496, looked up)
chain: MSAVNVAPELINADNTITYDAIVIGAGVIGPCVATGLARKGKKVLIVERDWAMPDRIVGELMQPGGVRALRSLGMIQSINNIEAYPVTGYTVFFNGEQVDIPYPYKADIPKVEKLKDLVKDGNDKVLEDSTIHIKDYEDDERERGVAFVHGRFLNNLRNITAQEPNVTRVQGNCIEILKDEKNEVVGAKVDIDGRGKVEFKAHLTFICDGIFSRFRKELHPDHVPTVGSSFVGMSLFNAKNPAPMHGHVILGSDHMPILVYQISPEETRILCAYNSPKVPADIKSWMIKDVQPFIPKSLRPSFDEAVSQGKFRAMPNSYLPARQNDVTGMCVIGDALNMRHPLTGGGMTVGLHDVVLLIKKIGDLDFSDREKVLDELLDYHFERKSYDSVINVLSVALYSLFAADSDNLKALQKGCFKYFQRGGDCVNKPVEFLSGVLPKPLQLTRVFFAVAFYTIYLNMEERGFLGLPMALLEGIMILITAIRVFTPFLFGELIG
notes: Erg1, squalene monooxygenase, S. cerevisiae; also called HA–Erg1; source: yeast, expressed from the endogenous ERG1 promoter (genomic) or ectopically in Δget3 cells, in lysate; not shown: HA, N-terminal, kept
On to B1, for which the “fold enrichment against Get3 DE FIDD” value with Get3 D57E-TEV-GFP [2] was 5 fold.
